We go through nine sequences from the supplement of paper PMC11246515.

± gives the standard deviation of the averaged measurements.

This data set is described as follows: total protein half-life in vivo (active degradation + dilution); higher = more stable protein.
Setting [1] is: wild type E. coli NCM3722, growth: C-lim chemostat, doubling time 3 h.
[2] abbreviates: wild type E. coli NCM3722, growth: C-lim chemostat, doubling time 6 h.
Setting [3] is: wild type E. coli NCM3722, growth: C-lim chemostat, doubling time 12 h.
The mark [4] stands for this setting: wild type E. coli NCM3722, growth: P-lim chemostat, doubling time 6 h.
Where [5] appears, read: wild type E. coli NCM3722, growth: P-lim chemostat, doubling time 12 h.
[6] abbreviates: E. coli NCM3722 delta-clpP delta-lon delta-hslV, growth: N-lim chemostat, doubling time 6 h.
Where [7] appears, read: E. coli NCM3722 delta-clpP, growth: N-lim chemostat, doubling time 6 h.
The mark [8] stands for this setting: E. coli NCM3722 delta-hslV, growth: N-lim chemostat, doubling time 6 h.
Where [9] appears, read: E. coli NCM3722 delta-lon, growth: N-lim chemostat, doubling time 6 h.
Where [10] appears, read: E. coli NCM3722 delta-smpB, growth: N-lim chemostat, doubling time 6 h.
[11] abbreviates: wild type E. coli NCM3722, growth: N-lim chemostat, doubling time 6 h.
Setting [12] is: wild type E. coli NCM3722, growth: N-lim chemostat, doubling time 12 h.

Regarding “MYDFNLVLLLLQQMCVFLVIAWLMSKTPLFIPLMQVTVRLPHKFLCYIVFSIFCIMGTWFGLHIDDSIANTRAIGAVMGGLLGGPVVGGLVGLTGGLHRYSMGGMTALSCMISTIVEGLLGGLVHSILIRRGRTDKVFNPITAGAVTFVAEMVQMLIILAIARPYEDAVRLVSNIAAPMMVTNTVGAALFMRILLDKRAMFEKYTSAFSATALKVAASTEGILRQGFNEVNSMKVAQVLYQELDIGAVAITDREKLLAFTGIGDDHHLPGKPISSTYTLKAIETGEVVYADGNEVPYRCSLHPQCKLGSTLVIPLRGENQRVMGTIKLYEAKNRLFSSINRTLGEGIAQLLSAQILAGQYERQKAMLTQSEIKLLHAQVNPHFLFNALNTIKAVIRRDSEQASQLVQYLSTFFRKNLKRPSEFVTLADEIEHVNAYLQIEKARFQSRLQVNIAIPQELSQQQLPAFTLQPIVENAIKHGTSQLLDTGRVAISARREGQHLMLEIEDNAGLYQPVTNASGLGMNLVDKRLRERFGDDYGISVACEPDSYTRITLRLPWRDEA [P0AD14]”, the “total protein half-life in vivo” value was 2.82 ± 0.28 h under setting [1]; 5.37 ± 0.45 h under setting [2]; 10.9 ± 0.79 h under setting [3]; 6.05 ± 0.33 h under setting [4]; 11.1 ± 1.1 h under setting [5].

In the case of “MDRRRFIKGSMAMAAVCGTSGIASLFSQAAFAADSDIADGQTQRFDFSILQSMAHDLAQTAWRGAPRPLPDTLATMTPQAYNSIQYDAEKSLWHNVENRQLDAQFFHMGMGFRRRVRMFSVDPATHLAREIHFRPELFKYNDAGVDTKQLEGQSDLGFAGFRVFKAPELARRDVVSFLGASYFRAVDDTYQYGLSARGLAIDTYTDSKEEFPDFTAFWFDTVKPGATTFTVYALLDSASITGAYKFTIHCEKSQVIMDVENHLYARKDIKQLGIAPMTSMFSCGTNERRMCDTIHPQIHDSDRLSMWRGNGEWICRPLNNPQKLQFNAYTDNNPKGFGLLQLDRDFSHYQDIMGWYNKRPSLWVEPRNKWGKGTIGLMEIPTTGETLDNIVCFWQPEKAVKAGDEFAFQYRLYWSAQPPVHCPLARVMATRTGMGGFSEGWAPGEHYPEKWARRFAVDFVGGDLKAAAPKGIEPVITLSSGEAKQIEILYIEPIDGYRIQFDWYPTSDSTDPVDMRMYLRCQGDAISETWLYQYFPPAPDKRQYVDDRVMS”, the “total protein half-life in vivo” value reads like this: under setting [6], 6.6 ± 0.085 h; under setting [7], 6.09 ± 0.27 h; under setting [8], 5.73 ± 0.087 h; under setting [9], 5.99 ± 0.14 h; under setting [10], 5.86 ± 0.28 h; under setting [1], 3.22 ± 0.084 h. Further, the “total protein half-life in vivo” value reads like this: under setting [2], 6.205 ± 0.046 h; under setting [3], 12.5 ± 1.2 h; under setting [11], 6.44 ± 0.42 h; under setting [12], 12.6 ± 0.7 h; under setting [4], 6.71 ± 0.95 h; under setting [5], 12.628 ± 0.0049 h.

On to “MNQSYGRLVSRAAIAATAMASLLLLIKIFAWWYTGSVSILAALVDSLVDIGASLTNLLVVRYSLQPADDNHSFGHGKAESLAALAQSMFISGSALFLFLTGIQHLISPTPMTDPGVGVIVTIVALICTIILVSFQRWVVRRTQSQAVRADMLHYQSDVMMNGAILLALGLSWYGWHRADALFALGIGIYILYSALRMGYEAVQSLLDRALPDEERQEIIDIVTSWPGVSGAHDLRTRQSGPTRFIQIHLEMEDSLPLVQAHMVADQVEQAILRRFPGSDVIIHQDPCSVVPREGKRSMLS”, for which the “total protein half-life in vivo” value under setting [3] was 14.3 h, the “total protein half-life in vivo” value under setting [11] was 6.34 h and the “total protein half-life in vivo” value under setting [4] was 5.52 h.

On to “MITTRTARQCGQADYGWLQARYTFSFGHYFDPKLLGYASLRVLNQEVLAPGAAFQPRTYPKVDILNVILDGEAEYRDSEGNHVQASAGEALLLSTQPGVSYSEHNLSKDKPLTRMQLWLDACPQRENPLIQKLALNMGKQQLIASPEGAMGSLQLRQQVWLHHIVLDKGESANFQLHGPRAYLQSIHGKFHALTHHEEKAALTCGDGAFIRDEANITLVADSPLRALLIDLPV”, for which the “total protein half-life in vivo” value stood at 5.48 ± 0.071 h under setting [6]; 4.42 ± 0.18 h under setting [7]; 5.31 ± 0.28 h under setting [8]; 4.33 ± 0.52 h under setting [9]; 4.37 ± 0.26 h under setting [10]; 4.71 h under setting [2]. The “total protein half-life in vivo” value turned out to be 9.966 ± 0.01 h under setting [3]; 6.13 h under setting [11]; 8.48 ± 1.3 h under setting [12]; 4.66 ± 0.36 h under setting [4]; 9.05 ± 0.27 h under setting [5].

For “MKSALKKSVVSTSISLILASGMAAFAAHAADDVKLKATKTNVAFSDFTPTEYSTKGKPNIIVLTMDDLGYGQLPFDKGSFDPKTMENREVVDTYKIGIDKAIEAAQKSTPTLLSLMDEGVRFTNGYVAHGVSGPSRAAIMTGRAPARFGVYSNTDAQDGIPLTETFLPELFQNHGYYTAAVGKWHLSKISNVPVPEDKQTRDYHDNFTTFSAEEWQPQNRGFDYFMGFHAAGTAYYNSPSLFKNRERVPAKGYISDQLTDEAIGVVDRAKTLDQPFMLYLAYNAPHLPNDNPAPDQYQKQFNTGSQTADNYYASVYSVDQGVKRILEQLKKNGQYDNTIILFTSDNGAVIDGPLPLNGAQKGYKSQTYPGGTHTPMFMWWKGKLQPGNYDKLISAMDFYPTALDAADISIPKDLKLDGVSLLPWLQDKKQGEPHKNLTWITSYSHWFDEENIPFWDNYHKFVRHQSDDYPHNPNTEDLSQFSYTVRNNDYSLVYTVENNQLGLYKLTDLQQKDNLAAANPQVVKEMQGVVREFIDSSQPPLSEVNQEKFNNIKKALSEAK”, the “total protein half-life in vivo” value runs as follows: under setting [1], 2.86 ± 0.07 h; under setting [2], 5.43 ± 0.41 h; under setting [11], 7.26 h; under setting [12], 6.32 h; under setting [4], 5 ± 0.63 h.

Turning to “MEISWGRALWRNFLGQSPDWYKLALIIFLIVNPLIFLISPFVAGWLLVAEFIFTLAMALKCYPLLPGGLLAIEAVFIGMTSAEHVREEVAANLEVLLLLMFMVAGIYFMKQLLLFIFTRLLLSIRSKMLLSLSFCVAAAFLSAFLDALTVVAVVISVAVGFYGIYHRVASSRTEDTDLQDDSHIDKHYKVVLEQFRGFLRSLMMHAGVGTALGGVMTMVGEPQNLIIAKAAGWHFGDFFLRMSPVTVPVLICGLLTCLLVEKLRWFGYGETLPEKVREVLQQFDDQSRHQRTRQDKIRLIVQAIIGVWLVTALALHLAEVGLIGLSVIILATSLTGVTDEHAIGKAFTESLPFTALLTVFFSVVAVIIDQQLFSPIIQFVLQASEHAQLSLFYIFNGLLSSISDNVFVGTIYINEAKAAMESGAITLKQYELLAVAINTGTNLPSVATPNGQAAFLFLLTSALAPLIRLSYGRMVWMALPYTLVLTLVGLLCVEFTLAPVTEWFMQMGWIATL [P0AFA7]”, the “total protein half-life in vivo” value under setting [8] is 6.59 ± 0.35 h; the “total protein half-life in vivo” value under setting [9] turned out to be 6.07 ± 0.93 h; the “total protein half-life in vivo” value under setting [10] was 6.4 ± 0.18 h; the “total protein half-life in vivo” value under setting [3] came to 13.8 ± 0.64 h; the “total protein half-life in vivo” value under setting [11] is 5.91 ± 0.38 h; the “total protein half-life in vivo” value under setting [12] is 11.2 ± 4.7 h. For the same sequence, the “total protein half-life in vivo” value under setting [4] amounted to 6.58 ± 0.48 h and the “total protein half-life in vivo” value under setting [5] was 12.8 ± 0.14 h.

As for “MQEIYRFIDDAIEADRQRYTDIADQIWDHPETRFEEFWSAEHLASALESAGFTVTRNVGNIPNAFIASFGQGKPVIALLGEYDALAGLSQQAGCAQPTSVTPGENGHGCGHNLLGTAAFAAAIAVKKWLEQYGQGGTVRFYGCPGEEGGSGKTFMVREGVFDDVDAALTWHPEAFAGMFNTRTLANIQASWRFKGIAAHAANSPHLGRSALDAVTLMTTGTNFLNEHIIEKARVHYAITNSGGISPNVVQAQAEVLYLIRAPEMTDVQHIYDRVAKIAEGAALMTETTVECRFDKACSSYLPNRTLENAMYQALSHFGTPEWNSEELAFAKQIQATLTSNDRQNSLNNIAATGGENGKVFALRHRETVLANEVAPYAATDNVLAASTDVGDVSWKLPVAQCFSPCFAVGTPLHTWQLVSQGRTSIAHKGMLLAAKTMAATTVNLFLDSGLLQECQQEHQQVTDTQPYHCPIPKNVTPSPLK”, the “total protein half-life in vivo” value under setting [6] was 5.29 ± 0.17 h.

As for “MNTFSVSRLALALAFGVTLTACSSTPPDQRPSDQTAPGTSSRPILSAKEAQNFDAQHYFASLTPGAAAWNPSPITLPAQPDFVVGPAGTQGVTHTTIQAAVDAAIIKRTNKRQYIAVMPGEYQGTVYVPAAPGGITLYGTGEKPIDVKIGLSLDGGMSPADWRHDVNPRGKYMPGKPAWYMYDSCQSKRSDSIGVLCSAVFWSQNNGLQLQNLTIENTLGDSVDAGNHPAVALRTDGDQVQINNVNILGRQNTFFVTNSGVQNRLETNRQPRTLVTNSYIEGDVDIVSGRGAVVFDNTEFRVVNSRTQQEAYVFAPATLSNIYYGFLAVNSRFNAFGDGVAQLGRSLDVDANTNGQVVIRDSAINEGFNTAKPWADAVISNRPFAGNTGSVDDNDEIQRNLNDTNYNRMWEYNNRGVGSKVVAEAKK”, the “total protein half-life in vivo” value under setting [6] came to 5.8 ± 0.063 h; the “total protein half-life in vivo” value under setting [7] came to 7.06 ± 1.3 h; the “total protein half-life in vivo” value under setting [8] was determined as 6.54 ± 0.33 h; the “total protein half-life in vivo” value under setting [9] was found to be 6.89 ± 0.2 h; the “total protein half-life in vivo” value under setting [10] was found to be 5.993 ± 0.019 h; the “total protein half-life in vivo” value under setting [1] turned out to be 3.15 ± 0.05 h. The “total protein half-life in vivo” value reads like this: under setting [2], 6.27 ± 0.39 h; under setting [3], 11.6 ± 0.95 h; under setting [11], 6.28 ± 0.13 h; under setting [12], 14.1 ± 0.59 h; under setting [4], 6.3 ± 0.14 h; under setting [5], 13.7 ± 0.19 h.

For the sequence “MSIYKIPLPLNILEAARERITWTLNTLPRVCVSFSGGKDSGLMLHLTAELARQMGKKICVLFIDWEAQFSCTINYVQSLRELYTDVIEEFYWVALPLTTQNSLSQYQPEWQCWEPDVEWVRQPPQDAITDPDFFCFYQPGMTFEQFVREFAEWFSQKRPAAMMIGIRADESYNRFVAIASLNKQRFADDKPWTTAAPGGHSWYIYPIYDWKVADIWTWYANHQSLCNPLYNLMYQAGVPLRHMRICEPFGPEQRQGLWLYHVIEPDRWAAMCARVSGVKSGGIYAGHDNHFYGHRKILKPEHLDWQEYALLLLNSMPEKTAEHYRNKIAIYLHWYQKKGIEVPQTQQGDIGAKDIPSWRRICKVLLNNDYWCRALSFSPTKSKNYQRYNERIKGKRQEWGILCNND”, the “total protein half-life in vivo” value reads like this: under setting [6], 5.55 h; under setting [8], 6.21 h; under setting [9], 4.82 h.
